The series is described as follows: yeast display, Sf9 membrane polyspecificity reagent, FACS + sequencing; frameworks hold sequencing errors. The essentials: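 After 36–48 hours of galactose induction, yeast (Saccharomyces cerevisiae BJ5465) displaying a synthetic nanobody library were stained at 4 °C for 1 hour with 10% biotinylated, detergent-solubilized Sf9 membrane reagent. Streptavidin microbeads enriched the stained cells before FACS sorting into low and high (top ~1%) gates on anti-HA and streptavidin fluorescence. Each clone's polyreactivity label reflects its gate of origin.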
For “QVQLVESGGGVVQAGGSLRLSCAASGSTFRPYAMGWYRQAPGKERELVAAITFNGDTYADSVKGRFTISRDNAKNTVYLQMNSLKPEDTAVYYCAARNWYYYLRPWTSVGGYYWGQGTQVNVSS”, the “polyreactivity (PSR sort gate)” value is “high polyreactivity”.
The value for “QVQLVESGGALVQAGGSLRLTCAASGRTLYLYAMGWYRQAPGKEREFVAAINSSGDSTYYADSVKGRFTISRDNAKNTVYLQMNSLNPEDTAVYYCNVAWFRHEYDYWGQGTQVTVSS” was “low polyreactivity”.
For “QVQLVESGGGLVQAGGSLRLSCAASGSTFGPYAMGWYRQAPGKERELVAAISSGGSTYADSVKGRFTISRDNAKNTVYLQMNSLKPEDTAVYYCAKVHGRGVYSVEYDYWVQGTQVTVSS”, the “polyreactivity (PSR sort gate)” value is recorded as “low polyreactivity”.
The same measure for “LVQLVESGGGLVQAGGSLRLICAAYGSIFALNSLGWYSQAPGKERELVAAISRGDGTKYEHTVKGRFTISRDNAKTTVYLQMTSLKPEYTAVYYCAKDYWFRWRWPYNHWGLGTQVTVSS”: “low polyreactivity”.
The same measure for “QVQLVESGGGLVQAGGSLRLSCAASGSIFDYNCMGWYRQAPGKESELVATITLSTARTYYADSVKGRFTISRDNAKNTVYLQMNRLKPEDTAVYYCATRYPKFRRRNYWGQGTQVTVSS”: “high polyreactivity”.
The value for “QVQLVESGGGLVQAGGSLRLSCAASGLIFSYNAMGWYRPATGNERELVATIRRVGSTNYADSVKGRFTISRDNAKITVYLQMNSLKPEDTAVYYCAARSLRYGRGMYYWGQGTQVTVSS” was “high polyreactivity”; that for “QVQLVESGGGLVQAGGSLRFSCAASGRTFYPYAMGWYRQAPGKERELVAAINGGGRTYYADSVKGRFTISRDNAKNTVYLQMNSLKPEDTAVYYCATRYPAWRYDYNYWGQGTQVSVSS” was “high polyreactivity”.
Take “QVQLVESGGGLVQAGGSLRLSSAASGLIFWAYAMGWYRQAPGKERELVAAINSGGRTYYADSVKGRFTISRDNAKNTVYLQMNSLKPEDTAVYYCAAAGVYSSDYWGQGTQVTVSS”: the “polyreactivity (PSR sort gate)” value is on record as “low polyreactivity”.
In the case of “QLQHVESRRGLVQAGGSLRLSCAASGLTFVGYAMGWYRQAPGKERELGAAISGVGTTNYADSVKGRFTISRDNAKNTVYFQMNSLKPEDSAVYYCAKAPYPVPYGLYDYWGQGTQVTVSS”, the “polyreactivity (PSR sort gate)” value is given as “low polyreactivity”.
The value for “QVQLVESGGGLVQAGGSLRLSCAASGFTFFSYAMGWYRQAPGKERELVATITWSGGTYYADSVKGRFTISRDNAKNTVYVQMNSLKPEDTAVYYCNARRHYRRYSYRHNYWGQGTQVTVSS” was “high polyreactivity”; that for “QVQLVESGRGIVQAGGSLRLSCAASGSTFAVNAMGWYRQAPGKERELVAAISTGGSTNYADSVKGRFTISRDNEKNTVFLQMNSLKPEDTAVYYCAAEHPVTYPTSKFDYWGQGTQVTVSS” was “low polyreactivity”; that for “QVQLVESGGGLVQAGGSLRLSCAPSGRIFYYYAKGWYRQAPGKERELVAAINSGGSTNYADSVKGRFTISRDNAKNTVYLQMNSLKPEDTAVYYCAADAKLVSEFDYWGQGTQVTVSS” was “low polyreactivity”.
For “QVQLVESGGGLVQAGGSLRLSCAPSGRTFTAYAMGWYRQAPGKERELVAAITSGGSTYYADSVKGRFTISRDNAKNTVYLKRKSLKPEDTAVYYCATDLYSFYWPEYEYWGQGTQVTLSS”, the “polyreactivity (PSR sort gate)” value was “low polyreactivity”.
The value for “QVQLVESGGGIVPAGGSLRLSCAASGLTFRFNAMGWYRQAPGKERELVADITVSGGRTYYADSVKGRFTISRDNAKNTVYLQMNSLKPEDTAVYYCARRRTVGVTEPFSRGYDYWGQGTQVTVSS” was “low polyreactivity”; that for “QVQLVESGGGLVQAGGSLRLSCAASGSIDGYAMGWYRQAPGKERELVAAISKGGGNTYYADSVKGRFTISRDNAKNTVYLQMNSLKPEDTAVYYCAARRQIIWGQGTQVTVSS” was “high polyreactivity”; that for “QVHLVDSGGGLVQAGGSLRFSCAASGSIFGWYAMGWYRQAPGTERELVDSIAVTAGSTYYADSVKWRFPISRDKAKNTGYLQLNRLKPEDTALYSCAADDYSADAVQRFYYWGQGSQVTVSS” was “low polyreactivity”.
Consider “QVQLVESGGGLVEAGGSLRLTCAASGSIFTYYAMGWFRPAPGKERELVADITKSGGRTYYADSVKGRFTISRDNAKNTVYLQMYSLKPEDTAVYYCAAYRRNSRWELDYWGHGTQVTVSS”, for which the “polyreactivity (PSR sort gate)” value was “high polyreactivity”.
In the case of “QVQLVESGGGLVQAGGSLRLSCAASGIISSYYAMGWYRQAPGKERELVAAISKSGGSTDYADSVKGRFTISRDNAKNTVYLQMNSLKPEDTAVYYCAADAYWSYSTRYWFAYDYWGQGTQVTVSS”, the “polyreactivity (PSR sort gate)” value is recorded as “low polyreactivity”.
As to “QVQLVESGGGLVQAGGSLRLSCAASGRIFGGYAMGWYRQAPGKERELVASITGGGTTDYADSVKGRFTISRDNAKNTVYLQMNSLKPEDTAVYNCAIRTHQFGVSRSYNTYYYWGQGTQVTVSS”, the “polyreactivity (PSR sort gate)” value was “low polyreactivity”.
For the sequence “QVQLVESGGGLVQAGGSLRLSCAASGRIFGFNTMGWYRQAPGKERELVAAITSGGSTYADSVKGRFTISRDNAKNTVYLQMNSLKPEDTAVYYCNTRFYRPLWGYNYWGQGTQVTVSS”, the “polyreactivity (PSR sort gate)” value is given as “low polyreactivity”.
Regarding “QVQLVESGGGLVQAGGSLRLSCAASGFIFIRNAMGWYRQAPGKEWELVAAISSGGRTYYADSVKGRFTISRDNAKNTVYLQMNSLKPEDTAVYYCAARVITHYGRYYYWGQGTQVTVSS”, the “polyreactivity (PSR sort gate)” value is given as “high polyreactivity”.
For “QVQLVESGGGLVQAGGSLRLSCAASGSTLVTYTMGWYRQAPGKERELVASISWRGGSTYYADSVKGRFTISRDNAKNTVYLQMNSLKPEDTAVYYCNAVYYLWDYDYWGQGTQVTVSS”, the “polyreactivity (PSR sort gate)” value was “low polyreactivity”.
“QVQLVESGGGLVQEGGILRLSCAASGRTFTWYAMEWYRQAPGKERELVAAISFSGGSTYYADSVKGRFTISRDNAKNTVYLQMNSLKPEDSAVYYCARASGDAWEGPRLDYWGQGTQVTVSS”: the “polyreactivity (PSR sort gate)” value is listed as “low polyreactivity”.
In the case of “QVQLVESGGGLVQAGGSLRLSCAASGYLIGGNAMGWYRQAPGKERELVAVISSRAGRTYYADSVKGRFTISRDNAKNTVYLQMNSLKPEDTAVYYCNRVFSYQYKRDYWGQGTQVTVSS”, the “polyreactivity (PSR sort gate)” value was “high polyreactivity”.
The value for “QVQLVESGGGLVQAGGSLRLSCAASGYIFALNAMGWYRPAPGKEWELVAAINDSGDSTYYADSVKGRFTISRDNAKNTVYLQMNSLKPEDTAVYYCAAGFSYEWCYPTFDYWGQGTQVTVSS” was “low polyreactivity”.
The value for “QVQLVESGGGLVQAGGSRRLICAASGSIFGWYAMGWYRPAHGKERELVAAISQSGGRTYYADSVKGRFTISRDNAKNTVYLQMNSLKPEDTAVYYCAAYYTSYWGYDYDYWGQGTQVTVSS” was “low polyreactivity”; that for “QVQLVESGGGLVQAGGSLRLSCAASGFIFTDYAMGWYRQAPGKERELVAAISSGGRTYYAVSVKGRFTISRDNAKNTVYIQMNSLKPEDTAVYYCARGGRAEGWGQGTQVTVSS” was “high polyreactivity”; that for “QVQLVESGGGLVQAGGSLRLSCAASGSTFSDYTMGWYRQAPGKERELVAAITTIGGSTYYADSVKGRFTISRDNAKNTVYLQMNSLKPEDTAVYYCAASYYYPFEYYYWGQGTQVTVSS” was “low polyreactivity”.
With “QVQLVESGGGLVQAGGSLRLSCAASGLIYVTNAMGCYRQAPGKERELVAAITSVGSTNYADSVKGRFTISRDNAKNTVYLQMNSLKPEDTAVYYCAAGVIADQSIGPTWSGSEGDYWGQGTQVTVSS”, the “polyreactivity (PSR sort gate)” value is reported as “low polyreactivity”.
The same measure for “QVQLVESGGGLVQAGGSLRLSCAASGRNFKYNAMGWYRQAPGKERELVAVITSGGSTYYADSVKGRFTISRDNAKNTVYLQMNSLKPEDTAVYYCAKKYYKVHKFDYWGQGTQVTVSS”: “low polyreactivity”; for “QVQLVESGGGLVQAGGSLRLSCAASGSTFYPNPMGWYRQAPGKERELVAAISQRGGRTYYADSVKGRFTISRDNAKNTVYLQMNSLKPEDTAVYYCAATYQGYNSWYSFGYWGQGTQVTVSS”: “high polyreactivity”.
For “QVQLVESGGGLVQAGGSLRLSCAASGSIFYTNAMGWYRPAPGKERELVAAIRTGGSTNYADSVKGRFTISRDNAKNTVYLQMNSLKPEDTAVYYCAAAYGYGHKKYGYWGQATQVTVSS”, the “polyreactivity (PSR sort gate)” value is “low polyreactivity”.
On to “QVQLVDSGGGLVQAGGSLRLICAASGRTFGGNTMGWYREAPGKERELVAAISRRGGSTYYADSVKGRFSISRDNAKNTVYLQMNSLKPEDTAVYYCNKDGPSYSSYDYWGQGTQVTVSS”, for which the “polyreactivity (PSR sort gate)” value is “low polyreactivity”.
The same measure for “QVQLVESGGGLVQAGGSLRLSCAASGFTFNYNTMGWYRQAPGKERELVARISRSGGRTYYADSVKGRFTISRDNAKNTVYLQMNSLKPEDTAVYYCNTDYYGVRHRYDYWGQGTQVTVSS”: “high polyreactivity”.
Consider “QVQLVESGGGLVQAGGSLSLSCAASGFIFPRYTMGWYRQAPGKERELVAAMTSSGGTNYADSVKGRFTISRDNAKNTVYLQMNSLKPEDTAVYYCAARRRTQQGYGGGYWGQGTQVTVSS”, for which the “polyreactivity (PSR sort gate)” value is “high polyreactivity”.
“QVQLVESGGGLVQEGGSLRLSCAAYGSTSYRYAMGWYRQAPGKERELVAASSSSGGSTYYADSVKGRFTISRDNEKNTVYLQMNSLKPEDSAVYYCAARFYSGPGGYTMYYWGQGTQVSVSS”: the “polyreactivity (PSR sort gate)” value is given as “high polyreactivity”.
The same measure for “QDQLVESGGGLVQAGGSLRLSCAASGSTLYSNTMGWYRPAPGKERELVAAICWSGASTYYADSVKGRFSISRDNAKNTVYLQMNSLKPEDTAVYYCAAGAYRNWGLYYYWGQGTQVTVSS”: “high polyreactivity”; for “QVQLVESGGGLVQAGGSLRLSCAASGSTFGHYAMGWYRQAPGKERELVAAISWSGASTYYADSVKGRFTISRDNAKNTVYLQMNSLKPEDTAVYYCAAESYRQTYYVGDGYEDDYWGQGTQVTVSS”: “low polyreactivity”; for “QVQLVESGGGLVQAGGSLRLSCAASGRTFAPYTMGWYRQAPGKERELVAVITRRDGRTYYADSVKGRFTISRDNAKNTVYLQMNSLKPEDTAVYYCCFFPADWYRPVRDLRTDSDYWGQGTQVTVSS”: “low polyreactivity”.
With “QVQLEESGAGLLQAGGSIRLSCAASGRTFWYYTMGWYRQAPGKEREVVAAISSGGRTNYADSVKGRFTISRDNAKNTVYLQMNSLKPEDTAVYDCAALYAKYYYRYDYWGQGTQVTVSS”, the “polyreactivity (PSR sort gate)” value is listed as “high polyreactivity”.
The same measure for “QVQLVESGGGLVQAGGSLRLSCAASGSIFYVYAMGWSRQAPGKERELVASITRRRTNYADSVKGRFTISRDTAKNTVYLQMNSLKPEDTAVYYCAATTYVRQYATYDYWGQGTQVTVSS”: “high polyreactivity”.

Source of the values: the nanobody polyreactivity screen of Harvey et al. (2022).
